Laboratory results reported in US20200157212A1 (Pfizer, published 2020).

T1: Rat ROBO2 on cells (rat, UniProt Q7TPD3 22-1469 (mouse entry))
T1 chain: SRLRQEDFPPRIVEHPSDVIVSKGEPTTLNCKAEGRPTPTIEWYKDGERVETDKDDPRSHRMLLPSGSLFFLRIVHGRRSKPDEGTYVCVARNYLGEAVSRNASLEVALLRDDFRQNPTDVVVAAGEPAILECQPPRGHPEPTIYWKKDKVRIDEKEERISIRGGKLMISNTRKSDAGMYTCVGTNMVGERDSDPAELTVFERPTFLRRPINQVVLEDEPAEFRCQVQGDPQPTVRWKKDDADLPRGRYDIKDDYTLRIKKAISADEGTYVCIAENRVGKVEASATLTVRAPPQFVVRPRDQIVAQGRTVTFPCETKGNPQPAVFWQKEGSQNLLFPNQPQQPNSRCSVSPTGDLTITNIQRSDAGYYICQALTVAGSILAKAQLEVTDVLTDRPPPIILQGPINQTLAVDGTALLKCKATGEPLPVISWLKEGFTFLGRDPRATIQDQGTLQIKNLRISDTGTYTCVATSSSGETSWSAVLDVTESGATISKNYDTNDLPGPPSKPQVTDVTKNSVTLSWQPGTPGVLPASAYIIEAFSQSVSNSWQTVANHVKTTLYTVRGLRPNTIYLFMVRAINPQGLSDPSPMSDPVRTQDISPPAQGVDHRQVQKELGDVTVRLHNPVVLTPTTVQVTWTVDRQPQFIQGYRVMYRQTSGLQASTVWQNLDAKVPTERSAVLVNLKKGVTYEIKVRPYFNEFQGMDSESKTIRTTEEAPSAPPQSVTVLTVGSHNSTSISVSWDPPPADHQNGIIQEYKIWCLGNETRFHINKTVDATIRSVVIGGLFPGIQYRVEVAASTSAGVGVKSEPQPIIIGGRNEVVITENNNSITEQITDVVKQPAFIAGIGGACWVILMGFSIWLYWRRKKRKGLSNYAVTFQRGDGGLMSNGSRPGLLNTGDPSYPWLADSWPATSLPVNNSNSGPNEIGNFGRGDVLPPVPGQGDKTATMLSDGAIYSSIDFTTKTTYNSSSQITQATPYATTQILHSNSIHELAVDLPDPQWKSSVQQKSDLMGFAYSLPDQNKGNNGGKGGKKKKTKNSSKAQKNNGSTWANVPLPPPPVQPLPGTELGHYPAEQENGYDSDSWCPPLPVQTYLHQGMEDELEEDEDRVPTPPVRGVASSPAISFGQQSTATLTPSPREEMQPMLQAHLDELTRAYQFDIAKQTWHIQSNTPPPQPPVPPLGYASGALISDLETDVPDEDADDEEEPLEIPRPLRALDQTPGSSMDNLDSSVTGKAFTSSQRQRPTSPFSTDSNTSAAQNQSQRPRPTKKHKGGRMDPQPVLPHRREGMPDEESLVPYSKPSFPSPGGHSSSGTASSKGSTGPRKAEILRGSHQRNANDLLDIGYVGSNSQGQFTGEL


Molecular target: T1, Rat ROBO2 on cells
Experiment: cell-based or functional assay

Row | IC50 (nM), SVZa assay [nM] | Binder
1 | 0.11 | CTIR2-14 (antibody, human IgG1, kappa, V domains shown, CDR-shuffled IgG) VH: EVQLVQSGAEVKKPGASVKVSCKASGYTFRGYAMHWVRQAPGQGLEWMGWIDPRTGLTKFPQKFQGRVTMTRDTSITTAYMDLSRLRSDDTAVYYCARESGDDAFDIWGQGTMVTVSS VL: DIVMTQSPSSLSASVGDRVTITCRASQKISSYLNWYQQKPGKAPKLLIYAASSLQYGVPSRFSGSGSGTDFTLTISSLQPEDFATYYCQQSLELGFGGGTKVEIKR
2 | 0.41 | CTIR2-16 (antibody, human IgG1, kappa, V domains shown, CDR-shuffled IgG) VH: EVQLVQSGAEVKKPGASVKVSCKASGYTFRGYAMHWVRQAPGQGLEWMGWIDPRTGLTKFPQKFQGRVTMTRDTSITTAYMDLSRLRSDDTAVYYCARESGDDAFDIWGQGTMVTVSS VL: DIVMTQSPSSLSASVGDRVTITCRASQKISSYLNWYQQKPGKAPKLLIYAASSLQYGVPSRFSGSGSGTDFTLTISSLQPEDFATYYCQQSVGLFFGGGTKVEIKR
3 | 0.02 | CTIR2-15 (antibody, human IgG1, kappa, V domains shown, CDR-shuffled IgG) VH: EVQLVQSGAEVKKPGASVKVSCKASGYTFRGYAMHWVRQAPGQGLEWMGWIDPRTGLTKFPQKFQGRVTMTRDTSITTAYMDLSRLRSDDTAVYYCARESGDDAFDIWGQGTMVTVSS VL: DIVMTQSPSSLSASVGDRVTITCRASQKISSYLNWYQQKPGKAPKLLIYAASSLQYGVPSRFSGSGSGTDFTLTISSLQPEDFATYYCQQSVGLSFGGGTKVEIKR

Second part, the binder before the results:

Row | Binder | IC50 (nM), SVZa assay [nM]
4 | 93H2 (antibody, human IgG1, kappa, V domains shown, also called parental 93H2; 93H2 mAb) VH: EVQLVQSGAEVKKPGASVKVSCKASGYTFTGYYMHWVRQAPGQGLEWMGWINPNSGATNFPQKFQGRVTMTRDTSITTAYMDLSRLRSDDTAVYYCARESGDDAFDIWGQGTMVTVSS VL: not shown | 1.69
5 | Abcs55 (antibody, human IgG1, kappa, V domains shown, chain-shuffled IgG) VH: EVQLVQSGAEVKKPGASVKVSCKASGYTFTGYYMHWVRQAPGQGLEWMGWINPKDGDTEFPQKFQGRVTMTRDTSITTAYMDLSRLRSDDTAVYYCARESGDDAFDIWGQGTMVTVSS VL: DIVMTQSPSSLSASVGDRVTITCRASQSISSYLNWYQQKPGKAPKLLIYAASSLQYGVPSRFSGSGSGTDFTLTISSLQPEDFATYYCQQSYSTSFGGGTKVEIKR | 0.98
6 | Abcs20 (antibody, human IgG1, kappa, V domains shown, chain-shuffled IgG) VH: EVQLVQSGAEVKKPGASVKVSCKASGYTFTGYYMHWVRQAPGQGLEWMGWINPKNGDTEFPQKFQGRVTMTRDTSITTAYMDLSRLRSDDTAVYYCARESGDDAFDIWGQGTMVTVSS VL: DIVMTQSPSSLSASVGDRVTITCRASQSISSYLNWYQQKPGKAPKLLIYAASSLQSGVPSRFSGSGSGTDFTLTISSLQPEDFATYYCQQSVGLSFGGGTKVEIKR | 0.47
7 | Abcs25 (antibody, human IgG1, kappa, V domains shown, chain-shuffled IgG) VH: EVQLVQSGAEVKKPGASVKVSCKASGYTFTGYYMHWVRQAPGQGLEWMGWINPKDGDTEFPQKFQGRVTMTRDTSITTAYMDLSRLRSDDTAVYYCARESGDDAFDIWGQGTMVTVSS VL: DIVMTQSPSSLSASVGDRVTITCRASQSISSYLNWYQQKPGKAPKLLIYAASSLQSGVPSRFSGSGSGTDFTLTISSLQPEDFATYYCQQSVGLSFGGGTKVEIKR | 0.31
8 | Abcs40 (antibody, human IgG1, kappa, V domains shown, chain-shuffled IgG) VH: EVQLVQSGAEVKKPGASVKVSCKASGYTFTGYYMHWVRQAPGQGLEWMGWINPKDGDTEFPQKFQGRVTMTRDTSITTAYMDLSRLRSDDTAVYYCARESGDDAFDIWGQGTMVTVSS VL: DIVMTQSPSSLSASVGDRVTITCRASQSISSYLNWYQQKPGKAPKLLIYAASSLQSGVPSRFSGSGSGTDFTLTISSLQPEDFATYYCQQSVGLFFGGGTKVEIKR | 0.11
9 | Abcs35 (antibody, human IgG1, kappa, fully human IgG1; VH of Ab96 with VL of Ab123) heavy: EVQLVQSGAEVKKPGASVKVSCKASGYTFTGYYMHWVRQAPGQGLEWMGWINPKNGDTEFPQKFQGRVTMTRDTSITTAYMDLSRLRSDDTAVYYCARESGDDAFDIWGQGTMVTVSSASTKGPSVFPLAPSSKSTSGGTAALGCLVKDYFPEPVTVSWNSGALTSGVHTFPAVLQSSGLYSLSSVVTVPSSSLGTQTYICNVNHKPSNTKVDKKVEPKSCDKTHTCPPCPAPEAAGAPSVFLFPPKPKDTLMISRTPEVTCVVVDVSHEDPEVKFNWYVDGVEVHNAKTKPREEQYNSTYRVVSVLTVLHQDWLNGKEYKCKVSNKALPAPIEKTISKAKGQPREPQVYTLPPSREEMTKNQVSLTCLVKGFYPSDIAVEWESNGQPENNYKTTPPVLDSDGSFFLYSKLTVDKSRWQQGNVFSCSVMHEALHNHYTQKSLSLSPGK light: DIVMTQSPSSLSASVGDRVTITCRASQSISSYLNWYQQKPGKAPKLLIYAASSLQSGVPSRFSGSGSGTDFTLTISSLQPEDFATYYCQQSVGLFFGGGTKVEIKRTVAAPSVFIFPPSDEQLKSGTASVVCLLNNFYPREAKVQWKVDNALQSGNSQESVTEQDSKDSTYSLSSTLTLSKADYEKHKVYACEVTHQGLSSPVTKSFNRGEC | 0.039
